B1: Flag-tagged wild-type GBP-1 fragment α7–13 (residues 311–582), P32455 K390A; K391A; R392A; D393A; D394A; F395A; C396A (protein)
chain: CMENAVLALAQIENSAAVQKAIAHYEQQMGQKVQLPTETLQELLDLHRDSEREAIEVFIRSSFKDVDHLFQKELAAQLEAAAAAAAKQNQEASSDRCSALLQVIFSPLEEEVKAGIYSKPGGYRLFVQKLQDLKKKYYEEPRKGIQAEEILQTYLKSKESMTDAILQTDQTLTEKEKEIEVERVKAESAQASAKMLQEMQRKNEQMMEQKERSYQEHLKQLTEKMENDRVQLLKEQERTLALKLQEQEQLLKEGFQKESRIMKNEIQDLQTK
B2: Flag-tagged wild-type GBP-1 fragment α7–13 (residues 311–582), P32455 E383A; L384A; Q387A; L388A; E389A (protein)
chain: CMENAVLALAQIENSAAVQKAIAHYEQQMGQKVQLPTETLQELLDLHRDSEREAIEVFIRSSFKDVDHLFQKAAAAAAAKKRDDFCKQNQEASSDRCSALLQVIFSPLEEEVKAGIYSKPGGYRLFVQKLQDLKKKYYEEPRKGIQAEEILQTYLKSKESMTDAILQTDQTLTEKEKEIEVERVKAESAQASAKMLQEMQRKNEQMMEQKERSYQEHLKQLTEKMENDRVQLLKEQERTLALKLQEQEQLLKEGFQKESRIMKNEIQDLQTK
B3: Flag-tagged wild-type GBP-1 fragment α7–13 (residues 311–582), P32455 K397A; Q398A; N399A; Q400A; E401A; S403A (protein)
chain: CMENAVLALAQIENSAAVQKAIAHYEQQMGQKVQLPTETLQELLDLHRDSEREAIEVFIRSSFKDVDHLFQKELAAQLEKKRDDFCAAAAAAASDRCSALLQVIFSPLEEEVKAGIYSKPGGYRLFVQKLQDLKKKYYEEPRKGIQAEEILQTYLKSKESMTDAILQTDQTLTEKEKEIEVERVKAESAQASAKMLQEMQRKNEQMMEQKERSYQEHLKQLTEKMENDRVQLLKEQERTLALKLQEQEQLLKEGFQKESRIMKNEIQDLQTK
B4: Flag-tagged wild-type GBP-1 fragment α7–13 (residues 311–582), P32455 L411A; Q412A; V413A; I414A; F415A; S416A; P417A (protein)
chain: CMENAVLALAQIENSAAVQKAIAHYEQQMGQKVQLPTETLQELLDLHRDSEREAIEVFIRSSFKDVDHLFQKELAAQLEKKRDDFCKQNQEASSDRCSALAAAAAAALEEEVKAGIYSKPGGYRLFVQKLQDLKKKYYEEPRKGIQAEEILQTYLKSKESMTDAILQTDQTLTEKEKEIEVERVKAESAQASAKMLQEMQRKNEQMMEQKERSYQEHLKQLTEKMENDRVQLLKEQERTLALKLQEQEQLLKEGFQKESRIMKNEIQDLQTK
B5: Flag-tagged wild-type GBP-1 fragment α7–13 (residues 311–582), P32455 S404A; D405A; R406A; C407A; S408A; L410A (protein)
chain: CMENAVLALAQIENSAAVQKAIAHYEQQMGQKVQLPTETLQELLDLHRDSEREAIEVFIRSSFKDVDHLFQKELAAQLEKKRDDFCKQNQEASAAAAAAALQVIFSPLEEEVKAGIYSKPGGYRLFVQKLQDLKKKYYEEPRKGIQAEEILQTYLKSKESMTDAILQTDQTLTEKEKEIEVERVKAESAQASAKMLQEMQRKNEQMMEQKERSYQEHLKQLTEKMENDRVQLLKEQERTLALKLQEQEQLLKEGFQKESRIMKNEIQDLQTK
B6: Flag-tagged wild-type GBP-1 fragment α7–13 (residues 311–582), P32455 V376A; D377A; H378A; L379A; F380A; Q381A; K382A (protein)
chain: CMENAVLALAQIENSAAVQKAIAHYEQQMGQKVQLPTETLQELLDLHRDSEREAIEVFIRSSFKDAAAAAAAELAAQLEKKRDDFCKQNQEASSDRCSALLQVIFSPLEEEVKAGIYSKPGGYRLFVQKLQDLKKKYYEEPRKGIQAEEILQTYLKSKESMTDAILQTDQTLTEKEKEIEVERVKAESAQASAKMLQEMQRKNEQMMEQKERSYQEHLKQLTEKMENDRVQLLKEQERTLALKLQEQEQLLKEGFQKESRIMKNEIQDLQTK
B7: Flag-tagged wild-type GBP-1 fragment α7–13 (residues 311–582), P32455 L418A; E419A; E420A; E421A; V422A; K423A (protein)
chain: CMENAVLALAQIENSAAVQKAIAHYEQQMGQKVQLPTETLQELLDLHRDSEREAIEVFIRSSFKDVDHLFQKELAAQLEKKRDDFCKQNQEASSDRCSALLQVIFSPAAAAAAAGIYSKPGGYRLFVQKLQDLKKKYYEEPRKGIQAEEILQTYLKSKESMTDAILQTDQTLTEKEKEIEVERVKAESAQASAKMLQEMQRKNEQMMEQKERSYQEHLKQLTEKMENDRVQLLKEQERTLALKLQEQEQLLKEGFQKESRIMKNEIQDLQTK

The binders below were run against endogenous TEA domain protein (TEAD), detected with a pan-TEAD antibody, P28347 (assay: co-immunoprecipitation (α-Flag) with western blot quantification). Conditions: chain shown with the change; lysates of transiently transfected HeLa cells; n = 3; parent: est. 1.0; read off a plot.
Chain of endogenous TEA domain protein (TEAD), detected with a pan-TEAD antibody, P28347 (P28347 whole entry, the tested form may be a part): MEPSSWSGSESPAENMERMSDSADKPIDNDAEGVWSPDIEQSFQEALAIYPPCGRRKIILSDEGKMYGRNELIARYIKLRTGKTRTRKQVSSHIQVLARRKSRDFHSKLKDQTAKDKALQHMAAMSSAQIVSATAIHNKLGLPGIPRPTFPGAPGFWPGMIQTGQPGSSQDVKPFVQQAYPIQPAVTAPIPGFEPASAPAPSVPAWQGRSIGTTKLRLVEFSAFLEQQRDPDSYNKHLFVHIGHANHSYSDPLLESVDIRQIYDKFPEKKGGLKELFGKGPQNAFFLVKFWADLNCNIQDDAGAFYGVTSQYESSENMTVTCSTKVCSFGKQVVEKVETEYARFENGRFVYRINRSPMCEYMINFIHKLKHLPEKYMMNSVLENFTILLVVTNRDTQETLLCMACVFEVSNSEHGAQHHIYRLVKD
In the case of B1, the ratio to parent is reported as 1.6.
B2 showed a ratio to parent of 1.6.
B3 showed a ratio to parent of 1.7.
In the case of B4, the ratio to parent is reported as 1.2.
B5 gave a ratio to parent of 1.1.
In the case of B6, the ratio to parent is reported as 0.37.
Binder B7 has a ratio to parent of 0.95.
